These results are taken from patent US11207423B2, “Nanocarriers having surface conjugated peptides and uses thereof for sustained local release of drugs” (Northwestern University, priority 2016, dated 2021).

Ends that are not written are not given here.

The nature of data set [1]: Rabbit eye clearance of Cy7-tagged nanoparticles by in vivo imaging (IVIS). The procedure: FIG. 8. Slowed rabbit eye clearance in vivo with Cy7-tagged 3R-peptide CDEX conjugate. 20 μl of anchor peptide amino-PEG8-RRYRL-amide (SEQ ID NO:5) conjugate to CDEX (2.5 mg/ml) along with conjugated 0.05 moles/particle Cy7-amine was injected into rabbit eyes on day one. Left eye 14 peptides/particle, right eye 21 peptides/particle.
FIG. 10. In vivo charge and zeta potential-dependent loss of NP from rabbit vitreous expressed as a percentage of the first measured photon flux at day 10 post-injection (taken as day 0). Volume of injection: 25 μl; nanocarrier concentration: 3 mg/ml. [Control: CDEX70-0: (n=2). CDEX70-2R; 64 peptides per particle by BCA (n=3) and CDEX70-3R; 61 peptides per particle by BCA (n=3)]. Half-lives: CDEX-0: 4 days; CDEX-2R: 7 days; CDEX70-3R: 13 days. 2R and 3R peptides are respectively (SEQ ID NO:4) and (SEQ ID NO:5) linked as carbamates of 3pyrrolidineCO-amido-PEG8-CO-peptide to Cy7-CDEX70. Cy7 amine is carbamate-linked at <1 mole/mole NP.
Thus BCA protein analysis of increasing peptide, with time in filtrate after 30 kDa filtration of a loaded carrier sample in buffer estimates the half-life for peptide release in buffer. For confirmation in actual vitreous humor (e.g., rabbit) at time points post injection LC-MS estimation of the peptide in vitreous extract follows precipitation of excess HA after adding 3 volumes of ethanol. […] Free intravitreal peptide is assayed after centrifugation via 30 kDa MWCO spin filter.
Retention of the NP in vitreous was tested in vivo in rabbits. 25 μl of CDEX70-2R-Cy7 (SEQ ID NO:4) 3 mg/ml or CDEX70-3R-Cy7 (SEQ ID NO:5) 3 mg/ml was administered by intravitreal injection and imaged via an IVIS scan after 4 weeks and nine weeks. Left: 4-week experiment. (See FIG. 9). The in vivo diffusion dependent loss of NP from rabbit vitreous expressed as percentage of the first measurement at day 10 post-injection (taken as day 0) is provided in FIG. 10. The determined half-lives of the NP is as follows: CDEX-0-Cy7: 4 days; CDEX-2R-Cy7: 7 days; CDEX70-3R-Cy7: 13 days. In vivo diffusion-dependent loss of NP from rabbit vitreous expressed as Flux of the first measurement at day 10 post-injection (taken as day 0) of CDEX70-2R-Cy7 at 4 different concentrations [Control: 0 mg/ml (n=6). 3 mg/ml (n=3).

Data set [2] can be described thus: Zeta potential measurement (electrophoretic light scattering). It counts as physicochemical. The procedure:
(§1) Sample characteristics (particle size, polydispersity and zeta-potential) were measured by a dynamic light scattering method using Malvern Zeta Sizer Nano-S90 instrument according to the manufacturer recommendations. Briefly, hydrodynamic diameter (dh) and polydispersity index (PDI) of nanogel/microgels were obtained for 1 mg/mL aqueous solutions at 25° C. in triplicates after sonication for 30 min and centrifugation at 12,000 rpm. Zeta-potential of the samples was measured for the same solutions in standard 1 cm-cuvettesusing zeta-potential option in the company's software. Average of five measurements±SD was registered.
(§2) Peptide concentration was estimated by BCA (Pierce) protein assay against a standard curve of free peptide. Zeta potential and size was measured on non-rhodamine product using electrophoretic light scattering and dynamic light scattering, respectively (Zetasizer, Malvern). The Z averaged particle size is 15 nm and the full width at half maximum of the distribution peak is 24 nm. Zeta potentials for 1-Arg, 2-Arg, 3-Arg and 4-Arg peptide conjugates were 0.07 mV, 2.2 mV, 4.6 mV and 9.2 mV respectively (Table 2).

Data set [3] can be described thus: Particle size measurement (dynamic light scattering). It counts as physicochemical. The procedure:
as §1, §2

The test system of data set [4] is laser-induced choroidal neovascularization (CNV). The following applies: single intravitreal injection of 1-ul 4 mg/ml 2 days before laser wounding; angiogenesis markers 14 days later. The procedure:
FIG. 12B. […] A single injection of 1-ul 4 mg/ml peptide (SEQ ID NO:6) or control is injected into mouse vitreous 2 days before laser wounding of the retina. Angiogenesis markers are detected by antibody stain, 14 days later.

The conditions of data set [5]: human vitreous; cited from earlier work.

The substance “Cy7-tagged 3R-peptide CDEX conjugate: Anchor peptide amino-PEG8-RRYRL-amide (SEQ ID NO:5) conjugated to CDEX with 0.05 moles/particle Cy7-amine; 14 or 21 peptides/particle (RRYRL-NH2; not fully specified (N-terminus); printed as amino-PEG8-RRYRL-amide; also: Cy7-amine on CDEX particle)” registered a fluorescence lost in data set [1] (rabbit left eye, 14 peptides/particle, 20 μl of 2.5 mg/ml) of over 90%. Also, in data set [1] (rabbit right eye, 21 peptides/particle, 20 μl of 2.5 mg/ml), the “residence in eye” value is “longer residence of conjugate in eye”.
“CDEX-3R-Cy7: Cy7-CDEX70 carbamate-linked to 3-pyrrolidine-CONH-PEG(8)-CO-Arg-Arg-Tyr-Arg-Leu-NH2 (SEQ ID NO:5) (RRYRL-NH2; not fully specified (N-terminus); printed as 3-pyrrolidine-CONH-PEG(8)-CO-Arg-Arg-Tyr-Arg-Leu-NH2; also: carbamate-linked to Cy7-CDEX70 nanocarrier)”: the “half-life of NP in rabbit vitreous” value in data set [1] (intravitreal 25 μl, 3 mg/ml, photon flux relative to day 10 post-injection (taken as day 0)) is recorded as 13 days. Moreover, the “retention in eye compared with 2R peptide conjugate at similar peptide loading” value in data set [1] (rabbit, IVIS scans after 4 and 9 weeks) was “retained longer in the eye”. The substance also yielded a Zeta potential in data set [2] of 6.34 ± 1.28 mV. Besides, in data set [3], the Particle size is reported as 81.69 ± 7.44 nm.
On to “adipic-Sar-Tyr-Asn-Leu-Tyr-Arg-Val-Arg-Ser-NH2 [SEQ ID NO:6]”, for which the retinal protective activity entry in data set [4] was “reduction of laser-induced choroidal neovascularization (CNV)”.
With “Ranibizumab: a VEGF inhibitor for treatment of advanced AMD”, the half-life in vitreous result in data set [5] is recorded as “approximately 9 days”.
“CDEX-AP3: CDI-activated CDEX nanogel carbamate-linked to AP3, amino-PEG(12)-CO-Arg-Arg-Ser-Arg-amide (SEQ ID NO:19) (RRSR-NH2; not fully specified (N-terminus); printed as amino-PEG(12)-CO-Arg-Arg-Ser-Arg-amide; also: carbamate-linked to CDI-activated CDEX nanogel)” showed a Zeta potential in data set [2] of 4.58 mV. Further, the Particle size in data set [3] is recorded as 124 ± 1.4 nm.
